Changes are numbered by the printed parent chain. In names and notes the source's numbering stands. Read-outs that look alike come from different tables or passages of the source. Values belong to the molecule of their own block, whether it stands above or below them.
Experiments:
[1] = target: soluble monomeric FcγRIIIA (extracellular region joined to linker-AVITAG), allele not stated (human) (UniProt P08637); test: ELISA
[2] = target: soluble dimeric FcγRIIB (extracellular domain fused to hinge-CH2-CH3 of human IgG2) (human) (UniProt P31994); test: ELISA
[3] = target: soluble FcγRIIIA 158F (human) (UniProt P08637); test: SPR (BIAcore) steady-state analysis, ch4D5 antibody captured on immobilised ErbB2/Fc-aglycosyl chimera, soluble FcγRIIIA F158 (printed 3aF150) injected at 0.2-[…]
[4] = target: soluble FcγRIIIA 158V (human) (UniProt P08637); test: SPR (BIAcore) steady-state analysis, ch4D5 antibody captured on immobilised ErbB2/Fc-aglycosyl chimera, soluble FcγRIIIA V158 (printed 3aV150) injected at 0.1-[…]
[5] = target: soluble monomeric FcγRIIIA (extracellular region joined to linker-AVITAG), allele not stated (human) (UniProt P08637); test: SPR
[6] = target: soluble dimeric FcγRIIB (extracellular domain fused to hinge-CH2-CH3 of human IgG2) (human) (UniProt P31994); test: SPR
[7] = target: soluble monomeric FcγRIIIA (extracellular region joined to linker-AVITAG), allele not stated (human) (UniProt P08637); test: SPR; remark: listed apart in the source
[8] = target: soluble dimeric FcγRIIB (extracellular domain fused to hinge-CH2-CH3 of human IgG2) (human) (UniProt P31994); test: SPR; remark: listed apart in the source
[9] = target: T1, soluble dimeric FcγRIIB (extracellular domain fused to hinge-CH2-CH3 of human IgG2) (human, UniProt P31994 43-217); test: ELISA
T1 construct: extracellular domain; also called FcRIIB; FcRIIB-Fc; not shown: human IgG2 hinge-CH2-CH3
T1 sequence (looked up): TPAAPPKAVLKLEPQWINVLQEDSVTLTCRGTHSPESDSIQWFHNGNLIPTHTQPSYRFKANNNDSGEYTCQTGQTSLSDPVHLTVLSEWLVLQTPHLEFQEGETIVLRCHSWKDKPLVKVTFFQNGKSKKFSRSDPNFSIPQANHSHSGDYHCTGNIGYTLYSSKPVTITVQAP

[10] = target: T2, soluble monomeric FcγRIIIA (extracellular region joined to linker-AVITAG), allele not stated (human, UniProt P08637 17-208); test: ELISA
T2 construct: extracellular domain; also called FcRIIIA; CD16A; not shown: linker-AVITAG
T2 sequence (P08637 17-208): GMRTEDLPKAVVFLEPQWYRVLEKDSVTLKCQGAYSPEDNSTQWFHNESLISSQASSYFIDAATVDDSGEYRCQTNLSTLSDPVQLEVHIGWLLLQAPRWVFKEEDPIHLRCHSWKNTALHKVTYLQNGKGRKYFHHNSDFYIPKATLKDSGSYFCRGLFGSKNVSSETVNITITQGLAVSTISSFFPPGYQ

Chain of soluble monomeric FcγRIIIA (extracellular region joined to linker-AVITAG), allele not stated (human) (P08637 17-208): as above
Chain of soluble FcγRIIIA 158F (human) (P08637 17-208): as above

- Binding to FcγRIIIA (ELISA) (fold increase) [1]: 0.5
Molecule: IgG1 Fc mutant H310Y; T289A; G337E (from UniProt P01857 1-330) (antibody)

- Binding to FcγRIIIA (ELISA) (fold increase) [1]: 0.5
Molecule: IgG1 Fc mutant D312E, K327N, I378S (from UniProt P01857 1-330) (antibody)

- Binding to FcγRIIIA (ELISA) (fold decrease) [1]: 0.5
- Binding to FcγRIIB (ELISA) (fold decrease) [2]: 0.5
Molecule: IgG1 Fc mutant D399E, M428L (from UniProt P01857 1-330) (antibody)

- Binding to FcγRIIIA (ELISA) (fold increase) [1]: 0.5
Molecule: IgG1 Fc mutant S298N, S407R (from UniProt P01857 1-330) (antibody)

- Binding to FcγRIIIA (ELISA) (fold increase) [1]: 0.5
Molecule: IgG1 Fc mutant S407I (from UniProt P01857 1-330) (antibody)

- Binding to FcγRIIIA (ELISA) (fold increase) [1]: 0.5
Molecule: IgG1 Fc mutant S383N; N384K; T256N; V262L; K218E; R214I; K205E; F149Y; K133M (from UniProt P01857 1-330) (antibody)

- Kd [3]: 1540 nM
- Kd [4]: 36000 nM
Molecule: ch4D5 wild type (IgG1) (antibody)

- ELISA IIIA binding [1]: 1 fold
- ELISA OD [1]: 0.5 OD
- ELISA OD [2]: 0.4 OD
- Kd [5]: 198 nM
- Kd [6]: 94 nM
- Kd [7]: 319 nM
- Kd [8]: 61.4 nM
Molecule: ch4-4-20 wild type (antibody)

- Binding to FcγRIIIA (ELISA) (fold increase) [1]: 0.5
Molecule: IgG1 Fc mutant V348M; K334N; F275I; Y202M; K147T (from UniProt P01857 1-330) (antibody)

- Binding to FcγRIIB (ELISA) [9]: 7 fold increase
- Binding to FcγRIIIA (ELISA) [10]: 1 fold increase
B1: IgG1 Fc mutant K222N, T335N, K370E, A378V, T394M (antibody)
heavy: ASTKGPSVFPLAPSSKSTSGGTAALGCLVKDYFPEPVTVSWNSGALTSGVHTFPAVLQSSGLYSLSSVVTVPSSSLGTQTYICNVNHKPSNTKVDKKVEPKSCDNTHTCPPCPAPELLGGPSVFLFPPKPKDTLMISRTPEVTCVVVDVSHEDPEVKFNWYVDGVEVHNAKTKPREEQYNSTYRVVSVLTVLHQDWLNGKEYKCKVSNKALPAPIEKNISKAKGQPREPQVYTLPPSRDELTKNQVSLTCLVEGFYPSDIVVEWESNGQPENNYKTMPPVLDSDGSFFLYSKLTVDKSRWQQGNVFSCSVMHEALHNHYTQKSLSLSPGK

- binding result [9]: no binding
- binding result [10]: no binding
B2: IgG1 Fc mutant V303I, V369F, M428L (antibody)
heavy: B1 heavy with N105K, V186I, N218T, V252F, E253K, V261A, M277T, M311L

- binding result [9]: no binding
- binding result [10]: no binding
B3: IgG1 Fc mutant K246E, V284M, V308A (antibody)
heavy: B1 heavy with N105K, K129E, V167M, V191A, N218T, E253K, V261A, M277T

- Binding to FcγRIIB (ELISA) [9]: 6 fold increase
- Binding to FcγRIIIA (ELISA) [10]: 0.5 fold increase
B4: IgG1 Fc mutant P343S, P353L, S375I, S383N (antibody)
heavy: B1 heavy with N105K, N218T, P226S, P236L, E253K, S258I, V261A, S266N, M277T

- Binding to FcγRIIB (ELISA) [9]: 10.8 fold increase
- Binding to FcγRIIIA (ELISA) [10]: 1.3 fold increase
B5: IgG1 Fc mutant V273I, K326E, L328I, P396L (antibody)
heavy: B1 heavy with N105K, V156I, K209E, L211I, N218T, E253K, V261A, M277T, P279L

- Binding to FcγRIIB (ELISA) [9]: 5 fold increase
- Binding to FcγRIIIA (ELISA) [10]: 1 fold increase
B6: IgG1 Fc mutant K246R, S298N, I377F (antibody)
heavy: B1 heavy with N105K, K129R, S181N, N218T, E253K, I260F, V261A, M277T

- Binding to FcγRIIB (ELISA) [9]: 9.3 fold increase
- Binding to FcγRIIIA (ELISA) [10]: 4 fold increase
B7: IgG1 Fc mutant K326I, S408N, P396L (antibody)
heavy: B1 heavy with N105K, K209I, N218T, E253K, V261A, M277T, P279L, S291N

- Binding to FcγRIIB (ELISA) [9]: 2.5 fold increase
- Binding to FcγRIIIA (ELISA) [10]: 3 fold increase
B8: IgG1 Fc mutant P247L, I253N, K334N (antibody)
heavy: B1 heavy with N105K, P130L, I136N, K217N, N218T, E253K, V261A, M277T

- Binding to FcγRIIB (ELISA) [9]: 5 fold increase
- Binding to FcγRIIIA (ELISA) [10]: 0.25 fold increase
B9: IgG1 Fc mutant V397M, T411A, S415N (antibody)
heavy: B1 heavy with N105K, N218T, E253K, V261A, M277T, V280M, T294A, S298N

- binding result [9]: no binding
- binding result [10]: no binding
B10: IgG1 Fc mutant K334E, E380D, G446V (antibody)
heavy: B1 heavy with N105K, K217E, N218T, E253K, V261A, E263D, M277T, G329V

- Binding to FcγRIIB (ELISA) [9]: 1 fold increase
- Binding to FcγRIIIA (ELISA) [10]: 1.5 fold increase
B11: IgG1 Fc mutant P247L, W313R, E388G (antibody)
heavy: B1 heavy with N105K, P130L, W196R, N218T, E253K, V261A, E271G, M277T

- Binding to FcγRIIB (ELISA) [9]: 0.25 fold decrease
- Binding to FcγRIIIA (ELISA) [10]: 0.75 fold increase
B12: IgG1 Fc mutant P247L, A330T, S440G (antibody)
heavy: B1 heavy with N105K, P130L, A213T, N218T, E253K, V261A, M277T, S323G

- Binding to FcγRIIB (ELISA) [9]: 1.5 fold increase
- Binding to FcγRIIIA (ELISA) [10]: 1.75 fold increase
B13: IgG1 Fc mutant P244H, L358M, V379M, N384K, V397M (antibody)
heavy: B1 heavy with N105K, P127H, N218T, L241M, E253K, V261A, V262M, N267K, M277T, V280M

- Binding to FcγRIIB (ELISA) [9]: 0.25 fold decrease
- Binding to FcγRIIIA (ELISA) [10]: 0.5 fold decrease
B14: IgG1 Fc mutant R301H, K340E, D399E (antibody)
heavy: B1 heavy with N105K, R184H, N218T, K223E, E253K, V261A, M277T, D282E

- Binding to FcγRIIB (ELISA) [9]: 7 fold increase
- Binding to FcγRIIIA (ELISA) [10]: 0.5 fold increase
B15: IgG1 Fc mutant V282E, V369I, L406F (antibody)
heavy: B1 heavy with N105K, V165E, N218T, V252I, E253K, V261A, M277T, L289F

- Binding to FcγRIIB (ELISA) [9]: 4.8 fold increase
- Binding to FcγRIIIA (ELISA) [10]: 1.1 fold increase
B16: IgG1 Fc mutant K246N, Q419R, P396L (antibody)
heavy: B1 heavy with N105K, K129N, N218T, E253K, V261A, M277T, P279L, Q302R

- Binding to FcγRIIB (ELISA) [9]: 0.5 fold decrease
- binding result [10]: no binding
B17: IgG1 Fc mutant K246I, Q362H, K370E (antibody)
heavy: B1 heavy with N105K, K129I, N218T, Q245H, V261A, M277T

- Binding to FcγRIIB (ELISA) [9]: 5 fold increase
- Binding to FcγRIIIA (ELISA) [10]: 1.5 fold increase
B18: IgG1 Fc mutant K326Q, K334E, T359N, T366S (antibody)
heavy: B1 heavy with N105K, K209Q, K217E, N218T, T242N, T249S, E253K, V261A, M277T

- Binding to FcγRIIB (ELISA) [9]: 6.7 fold increase
- Binding to FcγRIIIA (ELISA) [10]: 1.3 fold increase
B19: IgG1 Fc mutant K290E, V369A, T393A, P396L (antibody)
heavy: B1 heavy with N105K, K173E, N218T, V252A, E253K, V261A, T276A, M277T, P279L

- Binding to FcγRIIB (ELISA) [9]: 6.1 fold increase
- Binding to FcγRIIIA (ELISA) [10]: 2.8 fold increase
B20: IgG1 Fc mutant K290T, N390I, P396L (antibody)
heavy: B1 heavy with N105K, K173T, N218T, E253K, V261A, N273I, M277T, P279L
